Laboratory results published in patent US20220324969A1 (MYTHIC THERAPEUTICS, published 2022).

biological target: CD33 (Sino Biological, Cat #12238-H08H) (UniProt P20138 18-259); experiment: BLI, IgG captured on anti-human Fc sensor, 50 nM CD33, pH 7.4 vs pH 5.4
Sequence (P20138 18-259 limits assumed): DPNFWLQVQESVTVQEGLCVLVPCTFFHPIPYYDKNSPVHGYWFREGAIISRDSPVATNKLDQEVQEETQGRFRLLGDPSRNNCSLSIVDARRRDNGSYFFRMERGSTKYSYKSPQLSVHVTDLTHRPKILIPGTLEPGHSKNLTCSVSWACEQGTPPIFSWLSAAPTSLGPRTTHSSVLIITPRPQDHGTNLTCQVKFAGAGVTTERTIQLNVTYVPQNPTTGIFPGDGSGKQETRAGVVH

Binder | binding result
MYT1246 (antibody, V domains shown, IgG; IMGN779 VH variant #34 (R103H)) VH: QVQLQQPGAEVVKPGASVKMSCKASGYTFTSYYIHWIKQTPGQGLEWVGVIYPGNDDISYNQKFQGKATLTADKSSTTAYMQLSSLTSEDSAVYYCAREVRLHYFDVWGQGTTVTVSS VL: EIVLTQSPGSLAVSPGERVTMSCKSSQSVFFSSSQKNYLAWYQQIPGQSPRLLIYWASTRESGVPDRFTGSGSGTDFTLTISSVQPEDLAIYYCHQYLSSRTFGQGTKLEIK | binds
MYT2622 (antibody, V domains shown, IgG; IMGN779 VL variant #6 (V29H)) VH: QVQLQQPGAEVVKPGASVKMSCKASGYTFTSYYIHWIKQTPGQGLEWVGVIYPGNDDISYNQKFQGKATLTADKSSTTAYMQLSSLTSEDSAVYYCAREVRLRYFDVWGQGTTVTVSS VL: EIVLTQSPGSLAVSPGERVTMSCKSSQSHFFSSSQKNYLAWYQQIPGQSPRLLIYWASTRESGVPDRFTGSGSGTDFTLTISSVQPEDLAIYYCHQYLSSRTFGQGTKLEIK | binds
MYT2621 (antibody, V domains shown, IgG; IMGN779 VL variant #5 (S28H)) VH: QVQLQQPGAEVVKPGASVKMSCKASGYTFTSYYIHWIKQTPGQGLEWVGVIYPGNDDISYNQKFQGKATLTADKSSTTAYMQLSSLTSEDSAVYYCAREVRLRYFDVWGQGTTVTVSS VL: EIVLTQSPGSLAVSPGERVTMSCKSSQHVFFSSSQKNYLAWYQQIPGQSPRLLIYWASTRESGVPDRFTGSGSGTDFTLTISSVQPEDLAIYYCHQYLSSRTFGQGTKLEIK | binds
MYT2625 (antibody, V domains shown, IgG; IMGN779 VL variant #9 (S32H)) VH: QVQLQQPGAEVVKPGASVKMSCKASGYTFTSYYIHWIKQTPGQGLEWVGVIYPGNDDISYNQKFQGKATLTADKSSTTAYMQLSSLTSEDSAVYYCAREVRLRYFDVWGQGTTVTVSS VL: EIVLTQSPGSLAVSPGERVTMSCKSSQSVFFHSSQKNYLAWYQQIPGQSPRLLIYWASTRESGVPDRFTGSGSGTDFTLTISSVQPEDLAIYYCHQYLSSRTFGQGTKLEIK | binds
MYT2617 (antibody, V domains shown, IgG; IMGN779 VL variant #1 (K24H)) VH: QVQLQQPGAEVVKPGASVKMSCKASGYTFTSYYIHWIKQTPGQGLEWVGVIYPGNDDISYNQKFQGKATLTADKSSTTAYMQLSSLTSEDSAVYYCAREVRLRYFDVWGQGTTVTVSS VL: EIVLTQSPGSLAVSPGERVTMSCHSSQSVFFSSSQKNYLAWYQQIPGQSPRLLIYWASTRESGVPDRFTGSGSGTDFTLTISSVQPEDLAIYYCHQYLSSRTFGQGTKLEIK | binds
MYT1248 (antibody, V domains shown, IgG; IMGN779 VH variant #36 (F105H)) VH: QVQLQQPGAEVVKPGASVKMSCKASGYTFTSYYIHWIKQTPGQGLEWVGVIYPGNDDISYNQKFQGKATLTADKSSTTAYMQLSSLTSEDSAVYYCAREVRLRYHDVWGQGTTVTVSS VL: EIVLTQSPGSLAVSPGERVTMSCKSSQSVFFSSSQKNYLAWYQQIPGQSPRLLIYWASTRESGVPDRFTGSGSGTDFTLTISSVQPEDLAIYYCHQYLSSRTFGQGTKLEIK | binds
MYT2627 (antibody, V domains shown, IgG; IMGN779 VL variant #11 (S34H)) VH: QVQLQQPGAEVVKPGASVKMSCKASGYTFTSYYIHWIKQTPGQGLEWVGVIYPGNDDISYNQKFQGKATLTADKSSTTAYMQLSSLTSEDSAVYYCAREVRLRYFDVWGQGTTVTVSS VL: EIVLTQSPGSLAVSPGERVTMSCKSSQSVFFSSHQKNYLAWYQQIPGQSPRLLIYWASTRESGVPDRFTGSGSGTDFTLTISSVQPEDLAIYYCHQYLSSRTFGQGTKLEIK | binds
MYT2618 (antibody, V domains shown, IgG; IMGN779 VL variant #2 (S25H)) VH: QVQLQQPGAEVVKPGASVKMSCKASGYTFTSYYIHWIKQTPGQGLEWVGVIYPGNDDISYNQKFQGKATLTADKSSTTAYMQLSSLTSEDSAVYYCAREVRLRYFDVWGQGTTVTVSS VL: EIVLTQSPGSLAVSPGERVTMSCKHSQSVFFSSSQKNYLAWYQQIPGQSPRLLIYWASTRESGVPDRFTGSGSGTDFTLTISSVQPEDLAIYYCHQYLSSRTFGQGTKLEIK | binds
MYT2626 (antibody, V domains shown, IgG; IMGN779 VL variant #10 (S33H)) VH: QVQLQQPGAEVVKPGASVKMSCKASGYTFTSYYIHWIKQTPGQGLEWVGVIYPGNDDISYNQKFQGKATLTADKSSTTAYMQLSSLTSEDSAVYYCAREVRLRYFDVWGQGTTVTVSS VL: EIVLTQSPGSLAVSPGERVTMSCKSSQSVFFSHSQKNYLAWYQQIPGQSPRLLIYWASTRESGVPDRFTGSGSGTDFTLTISSVQPEDLAIYYCHQYLSSRTFGQGTKLEIK | binds
MYT2620 (antibody, V domains shown, IgG; IMGN779 VL variant #4 (Q27H)) VH: QVQLQQPGAEVVKPGASVKMSCKASGYTFTSYYIHWIKQTPGQGLEWVGVIYPGNDDISYNQKFQGKATLTADKSSTTAYMQLSSLTSEDSAVYYCAREVRLRYFDVWGQGTTVTVSS VL: EIVLTQSPGSLAVSPGERVTMSCKSSHSVFFSSSQKNYLAWYQQIPGQSPRLLIYWASTRESGVPDRFTGSGSGTDFTLTISSVQPEDLAIYYCHQYLSSRTFGQGTKLEIK | binds
MYT2619 (antibody, V domains shown, IgG; IMGN779 VL variant #3 (S26H)) VH: QVQLQQPGAEVVKPGASVKMSCKASGYTFTSYYIHWIKQTPGQGLEWVGVIYPGNDDISYNQKFQGKATLTADKSSTTAYMQLSSLTSEDSAVYYCAREVRLRYFDVWGQGTTVTVSS VL: EIVLTQSPGSLAVSPGERVTMSCKSHQSVFFSSSQKNYLAWYQQIPGQSPRLLIYWASTRESGVPDRFTGSGSGTDFTLTISSVQPEDLAIYYCHQYLSSRTFGQGTKLEIK | binds
MYT2624 (antibody, V domains shown, IgG; IMGN779 VL variant #8 (F31H)) VH: QVQLQQPGAEVVKPGASVKMSCKASGYTFTSYYIHWIKQTPGQGLEWVGVIYPGNDDISYNQKFQGKATLTADKSSTTAYMQLSSLTSEDSAVYYCAREVRLRYFDVWGQGTTVTVSS VL: EIVLTQSPGSLAVSPGERVTMSCKSSQSVFHSSSQKNYLAWYQQIPGQSPRLLIYWASTRESGVPDRFTGSGSGTDFTLTISSVQPEDLAIYYCHQYLSSRTFGQGTKLEIK | binds
MYT1247 (antibody, V domains shown, IgG; IMGN779 VH variant #35 (Y104H)) VH: QVQLQQPGAEVVKPGASVKMSCKASGYTFTSYYIHWIKQTPGQGLEWVGVIYPGNDDISYNQKFQGKATLTADKSSTTAYMQLSSLTSEDSAVYYCAREVRLRHFDVWGQGTTVTVSS VL: EIVLTQSPGSLAVSPGERVTMSCKSSQSVFFSSSQKNYLAWYQQIPGQSPRLLIYWASTRESGVPDRFTGSGSGTDFTLTISSVQPEDLAIYYCHQYLSSRTFGQGTKLEIK | binds
MYT1250 (antibody, V domains shown, IgG; IMGN779 VH variant #38 (V107H)) VH: QVQLQQPGAEVVKPGASVKMSCKASGYTFTSYYIHWIKQTPGQGLEWVGVIYPGNDDISYNQKFQGKATLTADKSSTTAYMQLSSLTSEDSAVYYCAREVRLRYFDHWGQGTTVTVSS VL: EIVLTQSPGSLAVSPGERVTMSCKSSQSVFFSSSQKNYLAWYQQIPGQSPRLLIYWASTRESGVPDRFTGSGSGTDFTLTISSVQPEDLAIYYCHQYLSSRTFGQGTKLEIK | binds
MYT2623 (antibody, V domains shown, IgG; IMGN779 VL variant #7 (F30H)) VH: QVQLQQPGAEVVKPGASVKMSCKASGYTFTSYYIHWIKQTPGQGLEWVGVIYPGNDDISYNQKFQGKATLTADKSSTTAYMQLSSLTSEDSAVYYCAREVRLRYFDVWGQGTTVTVSS VL: EIVLTQSPGSLAVSPGERVTMSCKSSQSVHFSSSQKNYLAWYQQIPGQSPRLLIYWASTRESGVPDRFTGSGSGTDFTLTISSVQPEDLAIYYCHQYLSSRTFGQGTKLEIK | binds
